{"source": "patent US20110130328A1", "about": "(THE ADMINISTRATORS OF THE TULANE EDUCATIONAL FUND, published 2011)", "note": "No end group written: not given here.", "data": [{"target": "envelope glycoproteins E1 and E2 of the H77 strain of HCV, on HIV-core pseudotype virions (hepatitis C virus strain H77, UniProt P27958)", "experiment": "cell-based or functional assay", "units": {"Percent Inhibition of infection by the H77-E1E2 pseudotype (luciferase), peptide at about 25 µM": "%", "Percent Inhibition of infection by the H77-E1E2 pseudotype (luciferase), peptide marked by asterisk: actual concentration 10 µM or less": "%"}, "values": [{"binder": "SCLTVPASAYQVRNSSGL", "note": "[peptide 52 (18 mer of E1 of HCV strain H77)]", "Percent Inhibition of infection by the H77-E1E2 pseudotype (luciferase), peptide at about 25 µM": -17.2}, {"binder": "VATRDGKLPTTQLRRHID", "note": "[peptide 61 (18 mer of E1 of HCV strain H77)]", "Percent Inhibition of infection by the H77-E1E2 pseudotype (luciferase), peptide at about 25 µM": -30.8}, {"binder": "LPTTQLRRHIDLLVGSAT", "note": "[peptide 62 (18 mer of E1 of HCV strain H77)]", "Percent Inhibition of infection by the H77-E1E2 pseudotype (luciferase), peptide at about 25 µM": -1.96}, {"binder": "RHIDLLVGSATLCSALYV", "note": "[peptide 63 (18 mer of E1 of HCV strain H77)]", "Percent Inhibition of infection by the H77-E1E2 pseudotype (luciferase), peptide at about 25 µM": 49.1}, {"binder": "GSATLCSALYVGDLCGSV", "note": "[peptide 64 (18 mer of E1 of HCV strain H77)]", "Percent Inhibition of infection by the H77-E1E2 pseudotype (luciferase), peptide at about 25 µM": 0.55}, {"binder": "ALYVGDLCGSVFLVGQLF (not fully specified)", "note": "[peptide 65 (18 mer of E1 of HCV strain H77)]", "Percent Inhibition of infection by the H77-E1E2 pseudotype (luciferase), peptide marked by asterisk: actual concentration 10 µM or less": 22.9}, {"binder": "CGSVFLVGQLFTFSPRHH", "note": "[peptide 66 (18 mer of E1 of HCV strain H77)]", "Percent Inhibition of infection by the H77-E1E2 pseudotype (luciferase), peptide at about 25 µM": 79.5}, {"binder": "GQLFTFSPRHHWTTQDCN", "note": "[peptide 67 (18 mer of E1 of HCV strain H77)]", "Percent Inhibition of infection by the H77-E1E2 pseudotype (luciferase), peptide at about 25 µM": 43.2}, {"binder": "PRHHWTTQDCNCSIYPGH", "note": "[peptide 68 (18 mer of E1 of HCV strain H77)]", "Percent Inhibition of infection by the H77-E1E2 pseudotype (luciferase), peptide at about 25 µM": 31.3}, {"binder": "QDCNCSIYPGHITGHRMA (not fully specified; cysteine pairing not given here)", "note": "[peptide 69 (18 mer of E1 of HCV strain H77)]", "Percent Inhibition of infection by the H77-E1E2 pseudotype (luciferase), peptide marked by asterisk: actual concentration 10 µM or less": -73.1}, {"binder": "SAYQVRNSSGLYHVTNDC", "note": "[peptide 53 (18 mer of E1 of HCV strain H77)]", "Percent Inhibition of infection by the H77-E1E2 pseudotype (luciferase), peptide at about 25 µM": 0.23}, {"binder": "MMNWSPTAALVVAQLLRI", "note": "[peptide 72 (18 mer of E1 of HCV strain H77)]", "Percent Inhibition of infection by the H77-E1E2 pseudotype (luciferase), peptide at about 25 µM": 33.4}, {"binder": "AALVVAQLLRIPQAIMDM", "note": "[peptide 73 (18 mer of E1 of HCV strain H77)]", "Percent Inhibition of infection by the H77-E1E2 pseudotype (luciferase), peptide at about 25 µM": 11.5}, {"binder": "LLRIPQAIMDMIAGAHWG", "note": "[peptide 74 (18 mer of E1 of HCV strain H77)]", "Percent Inhibition of infection by the H77-E1E2 pseudotype (luciferase), peptide at about 25 µM": 71.1}, {"binder": "IMDMIAGAHWGVLAGIKY", "note": "[peptide 75 (18 mer of E1 of HCV strain H77)]", "Percent Inhibition of infection by the H77-E1E2 pseudotype (luciferase), peptide at about 25 µM": 0.32}, {"binder": "AHWGVLAGIKYFSMVGNW", "note": "[peptide 76 (18 mer of E1 of HCV strain H77)]", "Percent Inhibition of infection by the H77-E1E2 pseudotype (luciferase), peptide at about 25 µM": 15.3}, {"binder": "GIKYFSMVGNWAKVLVVL", "note": "[peptide 77 (18 mer of E1 of HCV strain H77)]", "Percent Inhibition of infection by the H77-E1E2 pseudotype (luciferase), peptide at about 25 µM": 50.4}, {"binder": "VGNWAKVLVVLLLFAGVD", "note": "[peptide 78 (18 mer of E1 of HCV strain H77)]", "Percent Inhibition of infection by the H77-E1E2 pseudotype (luciferase), peptide marked by asterisk: actual concentration 10 µM or less": -21.1}, {"binder": "LVVLLLFAGVDAETHVTG", "note": "[peptide 79 (18 mer of E1 of HCV strain H77)]", "Percent Inhibition of infection by the H77-E1E2 pseudotype (luciferase), peptide at about 25 µM": 10.6}, {"binder": "SSGLYHVTNDCPNSSIVY", "note": "[peptide 54 (18 mer of E1 of HCV strain H77)]", "Percent Inhibition of infection by the H77-E1E2 pseudotype (luciferase), peptide at about 25 µM": 99.9}, {"binder": "TNDCPNSSVVYEAADAIL", "note": "[peptide 55 (18 mer of E1 of HCV strain H77)]", "Percent Inhibition of infection by the H77-E1E2 pseudotype (luciferase), peptide at about 25 µM": 1.12}, {"binder": "SIVYEAADAILHTPGCVP", "note": "[peptide 56 (18 mer of E1 of HCV strain H77)]", "Percent Inhibition of infection by the H77-E1E2 pseudotype (luciferase), peptide at about 25 µM": 42.3}, {"binder": "DAILHTPGCVPCVREGNA", "note": "[peptide 57 (18 mer of E1 of HCV strain H77)]", "Percent Inhibition of infection by the H77-E1E2 pseudotype (luciferase), peptide at about 25 µM": -49.4}, {"binder": "GCVPCVREGNASRCWVAV", "note": "[peptide 58 (18 mer of E1 of HCV strain H77)]", "Percent Inhibition of infection by the H77-E1E2 pseudotype (luciferase), peptide at about 25 µM": -4.42}]}]}
